How the values were obtained:
[1] = target: T1, fibrinogen-like globe (FBG) domain of human tenascin-C (human, UniProt P24821); experiment: SPR; at 37°C; C3 on human and rat FBG; who was immobilised not stated
T1 construct: tenascin-C, human, fibrinogen-like globe (FBG) domain at the C-terminus; contact residues are numbered A2115 to H2175; the constructs used for SPR, the crystal and the solid phase assay may differ; also called human FBG; recombinant human tenascin-C FBG; source: recombinant

[2] = target: T2, FBG domain of rat tenascin-C (Rattus norvegicus, UniProt A0A8I6AG89); experiment: as above
T2 construct: tenascin-C, rat, fibrinogen-like globe (FBG) domain; Printed only as 'rat antigen'; construct in the supplementary methods; also called rat antigen

[3] = target: T1, fibrinogen-like globe (FBG) domain of …; experiment: ELISA; solid phase binding assay: recombinant human TLR4 coated onto a 96-well plate; recombinant human FBG preincubated with C3 or isotype control antibody was added; bound FBG detected; settings: both partners purified

T1 sequence (P24821 1975-2201): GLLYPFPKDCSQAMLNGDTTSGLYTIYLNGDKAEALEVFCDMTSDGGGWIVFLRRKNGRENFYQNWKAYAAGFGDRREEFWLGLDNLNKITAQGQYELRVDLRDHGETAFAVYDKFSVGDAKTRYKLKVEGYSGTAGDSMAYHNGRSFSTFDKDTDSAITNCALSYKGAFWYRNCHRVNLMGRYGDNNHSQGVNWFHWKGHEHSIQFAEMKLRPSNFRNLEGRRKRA

B1: monoclonal antibody C3 (antibody, V domains shown)
VH: QVQLVESGGGLVQPGRSLRLSCAASGFTFDDYAMHWVRQAPGKGLEWVSGISGSGGSTYYADSVKGRFTISRDNAKNSLYLQMNSLRAEDTALYYCAKSYQSDEDAFDIWGQGTMVTVSS
VL: DIQMTQSPASLPTPVGDRVTITCRASQYIQGFLNWYQQKPGKAPKLLIYDASNLETGVPSRFSGSGSGTDFTLTISSLQPEDFATYYCQQSYSTPQTFGQGTKVDIK
notes: variable part as the heavy chain of m2 (crystal structure solved here, Fab chain B); as the light chain of m2 (crystal structure solved here, Fab chain C); in the solid phase and cell assays it is compared with an isotype control antibody; also called clone C3
[1]
  Kd: 0.07 nM
[2]
  Kd: 1.2 nM
[3]
  IC50: 45.6 nM
